Drawing on US6342220 (Genentech, dated 2002), this text covers IC50 for 1 molecule.

For this assay, the target named is T1, mpl-Ig (human, UniProt P40238 26-491, limits assumed).
T1 construct: From conditioned media of mpl-Ig-transfected 293 cells; also called mpl-IgG; not shown: human IgG Fc (the fusion is captured with rabbit anti-human IgG Fc)
T1 sequence (looked up): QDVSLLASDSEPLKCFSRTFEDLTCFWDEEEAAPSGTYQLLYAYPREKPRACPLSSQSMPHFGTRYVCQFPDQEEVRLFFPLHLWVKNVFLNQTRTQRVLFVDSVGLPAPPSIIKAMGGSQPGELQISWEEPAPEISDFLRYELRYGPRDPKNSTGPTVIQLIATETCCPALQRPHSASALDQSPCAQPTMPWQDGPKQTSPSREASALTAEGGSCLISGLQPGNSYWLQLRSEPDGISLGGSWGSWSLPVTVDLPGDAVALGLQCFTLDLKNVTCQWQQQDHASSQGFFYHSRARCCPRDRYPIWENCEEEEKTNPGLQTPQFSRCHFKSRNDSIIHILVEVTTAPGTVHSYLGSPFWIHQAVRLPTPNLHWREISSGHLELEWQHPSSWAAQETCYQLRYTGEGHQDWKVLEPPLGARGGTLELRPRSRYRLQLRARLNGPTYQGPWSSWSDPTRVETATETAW
The experiment in a line: competition ELISA, biotinylated TPO on captured mpl-Ig. On the technique in general: ELISA stands for enzyme-linked immunosorbent assay.

B1: 12E10 Fab′2 (other)
VH: QVQLQQSGPGLVKPSETLSLTCTVSGDSISSYYWSWIRQPPGKGLEWIGYIYYSGSTNYNPSLKSRVTISVDTSKSQFSLKLSSVTAADTAVYYCARGRYFDVWGRGTMVTVSS
VL: SYVLTQPPSVSGSPGQSITISCTGTSSDVGGYNYVSWYQQHPGKAPKLMIYEGSKRPSGVSNRFSGSKSGNTASLTISGLQAEDEADYYCSSYTTRSTRVFGGGTKLTVL
notes: F(ab′)2 with leucine zipper; A lambda version of the Fab′2 vector is not described; copies: 2 + 2
On to B1, for which the 50% inhibitory concentration (IC50) (usually the concentration that inhibits the measured activity by half) was determined as 0.64 nM.
